Where no end group is shown, it is not given here. The star is where a group is joined. Dansyl = CN(C)c1cccc2c(S(=O)(=O)*)cccc12
Biological target: protein farnesyltransferase (FTase), wild type (UniProt Q04631 1-377; Q02293 1-437)
Assay: fluorescence polarisation

Binder	Kd [nM]
Dansyl-TKCIVA [dansyl-TKCIVA]	5 ± 2
Dansyl-TKCAVQ [dansyl-TKCAVQ]	13 ± 3
Dansyl-TKCSLM [dansyl-TKCSLM]	8 ± 2
Dansyl-TKCSIM [dansyl-TKCSIM]	6 ± 2
Dansyl-TKCSLC (cysteine pairing not given here) [dansyl-TKCSLC]	5 ± 2
Dansyl-TKCNLQ [dansyl-TKCNLQ]	8 ± 1
Dansyl-TKCNIM [dansyl-TKCNIM]	5 ± 1
Dansyl-TKCSLG [dansyl-TKCSLG]	3.4 ± 0.7
Dansyl-TKCLTS [dansyl-TKCLTS]	5 ± 1
Dansyl-TKCTMS [dansyl-TKCTMS]	6 ± 2

Results, then the binder that gave them:

Kd [nM]	Binder
7 ± 3	Dansyl-TKCVVT [dansyl-TKCVVT]
3.6 ± 0.8	Dansyl-TKCITQ [dansyl-TKCITQ]
12 ± 4	Dansyl-TKCYVM [dansyl-TKCYVM]
3.6 ± 0.7	Dansyl-TKCGIM [dansyl-TKCGIM]
7 ± 1	Dansyl-TKCTLQ [dansyl-TKCTLQ]
12 ± 2	Dansyl-TKCRIS [dansyl-TKCRIS]
3.4 ± 0.8	Dansyl-TKCSIS [dansyl-TKCSIS]
6 ± 2	Dansyl-TKCLVM [dansyl-TKCLVM]
6 ± 1	Dansyl-TKCTKF [dansyl-TKCTKF]

From paper PMC2916699 (Journal of molecular biology, 2009)
